Reference: publication PMC4976051 (Journal of molecular biology, 2016)

Target: T1, E. coli RecB (E. coli, UniProt P08394 1-1180)
T1 sequence (looked up): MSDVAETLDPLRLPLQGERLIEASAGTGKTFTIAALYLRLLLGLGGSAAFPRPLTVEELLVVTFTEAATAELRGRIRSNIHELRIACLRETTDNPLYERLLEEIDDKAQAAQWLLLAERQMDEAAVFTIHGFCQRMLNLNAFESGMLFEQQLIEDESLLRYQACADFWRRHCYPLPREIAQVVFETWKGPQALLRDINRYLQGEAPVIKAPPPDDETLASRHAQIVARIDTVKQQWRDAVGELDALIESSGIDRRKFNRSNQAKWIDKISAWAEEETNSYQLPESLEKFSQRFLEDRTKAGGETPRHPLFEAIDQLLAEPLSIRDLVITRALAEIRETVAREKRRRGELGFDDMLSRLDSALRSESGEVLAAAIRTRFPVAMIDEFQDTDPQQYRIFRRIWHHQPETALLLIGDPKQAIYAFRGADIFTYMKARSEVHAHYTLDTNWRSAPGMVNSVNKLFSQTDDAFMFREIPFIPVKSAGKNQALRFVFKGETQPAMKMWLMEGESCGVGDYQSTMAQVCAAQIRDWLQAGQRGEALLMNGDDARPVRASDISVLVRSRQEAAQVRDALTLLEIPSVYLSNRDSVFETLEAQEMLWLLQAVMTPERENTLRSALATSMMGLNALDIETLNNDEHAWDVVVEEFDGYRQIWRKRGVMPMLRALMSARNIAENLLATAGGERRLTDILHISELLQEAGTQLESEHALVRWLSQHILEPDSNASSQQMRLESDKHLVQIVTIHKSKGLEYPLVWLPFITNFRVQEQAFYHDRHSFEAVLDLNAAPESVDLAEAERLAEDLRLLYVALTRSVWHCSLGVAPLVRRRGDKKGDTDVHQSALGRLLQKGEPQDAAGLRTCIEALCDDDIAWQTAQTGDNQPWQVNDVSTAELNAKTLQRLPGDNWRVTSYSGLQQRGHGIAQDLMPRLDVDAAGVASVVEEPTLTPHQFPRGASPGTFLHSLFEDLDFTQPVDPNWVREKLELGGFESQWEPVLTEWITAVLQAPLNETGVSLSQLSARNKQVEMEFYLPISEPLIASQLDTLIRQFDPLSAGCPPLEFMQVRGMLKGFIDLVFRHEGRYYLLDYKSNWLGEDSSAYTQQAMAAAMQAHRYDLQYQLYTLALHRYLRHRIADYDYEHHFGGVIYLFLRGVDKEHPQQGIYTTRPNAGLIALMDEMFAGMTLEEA
Test: reconstitution from purified subunits

- binding result: binds
B1: E. coli RecC (natural protein, UniProt P07648 1-1122, looked up)
chain: MLRVYHSNRLDVLEALMEFIVERERLDDPFEPEMILVQSTGMAQWLQMTLSQKFGIAANIDFPLPASFIWDMFVRVLPEIPKESAFNKQSMSWKLMTLLPQLLEREDFTLLRHYLTDDSDKRKLFQLSSKAADLFDQYLVYRPDWLAQWETGHLVEGLGEAQAWQAPLWKALVEYTHQLGQPRWHRANLYQRFIETLESATTCPPGLPSRVFICGISALPPVYLQALQALGKHIEIHLLFTNPCRYYWGDIKDPAYLAKLLTRQRRHSFEDRELPLFRDSENAGQLFNSDGEQDVGNPLLASWGKLGRDYIYLLSDLESSQELDAFVDVTPDNLLHNIQSDILELENRAVAGVNIEEFSRSDNKRPLDPLDSSITFHVCHSPQREVEVLHDRLLAMLEEDPTLTPRDIIVMVADIDSYSPFIQAVFGSAPADRYLPYAISDRRARQSHPVLEAFISLLSLPDSRFVSEDVLALLDVPVLAARFDITEEGLRYLRQWVNESGIRWGIDDDNVRELELPATGQHTWRFGLTRMLLGYAMESAQGEWQSVLPYDESSGLIAELVGHLASLLMQLNIWRRGLAQERPLEEWLPVCRDMLNAFFLPDAETEAAMTLIEQQWQAIIAEGLGAQYGDAVPLSLLRDELAQRLDQERISQRFLAGPVNICTLMPMRSIPFKVVCLLGMNDGVYPRQLAPLGFDLMSQKPKRGDRSRRDDDRYLFLEALISAQQKLYISYIGRSIQDNSERFPSVLVQELIDYIGQSHYLPGDEALNCDESEARVKAHLTCLHTRMPFDPQNYQPGERQSYAREWLPAASQAGKAHSEFVQPLPFTLPETVPLETLQRFWAHPVRAFFQMRLQVNFRTEDSEIPDTEPFILEGLSRYQINQQLLNALVEQDDAERLFRRFRAAGDLPYGAFGEIFWETQCQEMQQLADRVIACRQPGQSMEIDLACNGVQITGWLPQVQPDGLLRWRPSLLSVAQGMQLWLEHLVYCASGGNGESRLFLRKDGEWRFPPLAAEQALHYLSQLIEGYREGMSAPLLVLPESGGAWLKTCYDAQNDAMLDDDSTLQKARTKFLQAYEGNMMVRGEGDDIWYQRLWRQLTPETMEAIVEQSQRFLLPLFRFNQS
